Results as given in PMC2923636 (Structure (London, England : 1993), 2009).

Biological target: T1, AIRE-PHD1 P326L mutant (human, UniProt O43918 293-346, P326L)
T1 sequence (looked up): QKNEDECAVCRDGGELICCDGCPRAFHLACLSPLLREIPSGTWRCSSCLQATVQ
Test: NMR titration

ARTKQTARKST (peptide, UniProt P68431 2-12, looked up) [unmodified histone H3 peptide (residues 1-11)]
binding result: binds
